From patent US20220112296A1 (Chugai, published 2022)
Numbering of substitutions follows the chain as printed. Values joined by “and” are separate entries in the source; they are usually repeats but may differ in a detail not shown here. Equal entries are not always repeated.

T1: cyno CD137-Fc (cynomolgus monkey; human, biotin-labeled)
T1 construct: whole entry named; also called biotin-labeled cynomolgus monkey CD137 fused to human IgG1 Fc fragment; not shown: human IgG1 Fc fragment
T1 chain: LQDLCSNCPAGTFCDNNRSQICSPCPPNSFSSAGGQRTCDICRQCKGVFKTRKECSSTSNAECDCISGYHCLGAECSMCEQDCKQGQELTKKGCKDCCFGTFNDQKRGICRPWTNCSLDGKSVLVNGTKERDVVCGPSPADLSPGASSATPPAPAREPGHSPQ

T2: Human CD3eg linker (human)
T2 construct: CD3 epsilon and gamma subunits joined by a 29-mer linker, C-terminal Flag-tag (in the entry); also called recombinant human CD3
T2 chain: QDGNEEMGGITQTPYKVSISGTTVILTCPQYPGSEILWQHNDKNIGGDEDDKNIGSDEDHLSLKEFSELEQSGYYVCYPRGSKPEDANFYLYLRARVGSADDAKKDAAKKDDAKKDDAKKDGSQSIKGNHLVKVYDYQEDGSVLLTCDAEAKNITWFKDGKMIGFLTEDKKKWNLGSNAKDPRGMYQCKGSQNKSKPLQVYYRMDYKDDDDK

B1: GPC3 ERY22-dBBDu_186/L096 (bispecific antibody, human IgG1, kappa, L234A L235A, N297A)
heavy 1: DIVMTQSPLSLPVTPGEPASISCRSSQSLVHSNRNTYLHWYQQKPGQAPRLLIYKVSNRFSGVPDRFSGSGSGTDFTLKISRVEAEDVGVYYCSQNTHVPPTFGQGTKLEIKSSASTKGPSVFPLAPSSKSTSGGTAALGCLVKDYFPEPVTVSWNSGALTSGVHTFPAVLQSSGLYSLSSVVTVPSSSLGTQTYICNVNHKPSNTKVDKKVEPKSCDKTHTCPPCPAPEAAGGPSVFLFPPKPKDTLMISRTPEVTCVVVDVSHEDPEVKFNWYVDGVEVHNAKTKPREEQYASTYRVVSVLTVLHQDWLNGKEYKCKVSNKALPAPIEKTISKAKGQPREPQVCTLPPSRDELTKNQVSLWCLVKGFYPSDIAVEWESNGQPENNYKTTPPVLDSDGSFFLYSKLTVDKSRWQQGNVFSCSVMHEALHNHYTQKSLSLSPHHHHHHHH
light 1: QVQLVQSGAEVKKPGASVKVSCKASGYTFTDYEMHWIRQPPGQGLEWIGAIDPKTGDTAYSQKFKGRVTLTADKSTSTAYMELSSLTSEDTAVYYCTRFYSYTYWGQGTLVTVSSASVAAPSVFIFPPSDEQLKSGTASVVCLLNNFYPREAKVQWKVDNALQSGNSQESVTEQDSKDSTYSLSSTLTLSKADYEKHKVYACEVTHQGLSSPVTKSFNRGEC
heavy 2: QVQLVESGGGLVQPGRSLRLSCAASGFTFSNAWMHWVRQAPGKGLEWVAQIKDRSNQYATYYAPSVKGRFTISRDDSKNSIYLQMNSLKTEDTAVYYCHYVHYAQASTVLPAFGVDAWGQGTTVTVSSASTKGPSVFPLAPSSKSTSGGTAALGCLVKDYFPEPVTVSWNSGALTSGVHTFPAVLQSSGLYSLSSVVTVPSSSLGTQTYICNVNHKPSNTKVDKKVEPKSCDKTHTCPPCPAPEAAGGPSVFLFPPKPKDTLMISRTPEVTCVVVDVSHEDPEVKFNWYVDGVEVHNAKTKPREEQYASTYRVVSVLTVLHQDWLNGKEYKCKVSNKALPAPIEKTISKAKGQPREPQVYTLPPSRCELTKNQVSLSCAVKGFYPSDIAVEWESNGQPENNYKTTPPVLDSDGSFFLVSKLTVDKSRWQQGNVFSCSVMHEALHNHYTQKSLSLSPDYKDDDDK
light 2: DIVMTQSPLSLPVTPGEPASISCRTSQELVHINRYIFLHWYQQKPGQAPRLLIYKVYNRFQGVPDRFSGSGSGTDFTLKISRVEAEDVGVYYCAQGTSVPYTFGQGTKLEIKRTVAAPSVFIFPPSDEQLKSGTASVVCLLNNFYPREAKVQWKVDNALQSGNSQESVTEQDSKDSTYSLSSTLTLSKADYEKHKVYACEVTHQGLSSPVTKSFNRGEC
B2: GPC3 ERY22-dBBDu_189/L116 (bispecific antibody, human IgG1, kappa, L234A L235A, N297A)
heavy 1: B1 heavy 1
light 1: B1 light 1
heavy 2: B1 heavy 2 with V48I, T108S, V109L, A112S
light 2: B1 light 2 with R24S, T25S, I32A, Y35Q, F37Y, Y57A, Q61P, S98Q, Y101F
B3: GPC3 ERY22-dBBDu_189/L119 (bispecific antibody, human IgG1, kappa, L234A L235A, N297A)
heavy 1: B1 heavy 1
light 1: B1 light 1
heavy 2: B1 heavy 2 with V48I, T108S, V109L, A112S
light 2: B1 light 2 with R24T, T25A, Y35F, Y57S, Q61I, T97S, S98Q, Y101F
B4: GPC3 ERY22-dBBDu_186/L098 (bispecific antibody, human IgG1, kappa, L234A L235A, N297A)
heavy 1: B1 heavy 1
light 1: B1 light 1
heavy 2: B1 heavy 2
light 2: B1 light 2 with R24A, T25A, Q27E, Y57S, Q61I, T97S, S98Q, Y101F
B5: GPC3 ERY22-dBBDu_186/L106 (bispecific antibody, human IgG1, kappa, L234A L235A, N297A)
heavy 1: B1 heavy 1
light 1: B1 light 1
heavy 2: B1 heavy 2
light 2: B1 light 2 with R24S, Q27E, V30L, Y35F, Y57A, Q61M, T97S, S98Q, Y101F
B6: DADU01_3#001 (antibody, V domains shown)
VH: QVQLVESGGGLVQPGRSLRLSCAASGFTFSIAWMHWVRQAPGKGLEWVAQIKDRVNAYEAYYAPSVKGRFTISRDDSKNSIYLQMNSLKTEDTAVYYCRYVHYASYYDLLGYGGVDAWGQGTTVTVSS
VL: DIVMTQSPLSLPVTPGEPASISCRSSQSLVHSNRNTYLHWYQQKPGQAPRLLIYKVSNRFSGVPDRFSGSGSGTDFTLKISRVEAEDVGVYYCGQGTQVPYTFGQGTKLEIK
notes: also called dBBDu_126; dBBDu126
B7: CE115HA340 (antibody, human IgG1, L234A L235A, N297A, V domains shown)
VH: QVQLVESGGGLVQPGRSLRLSCAASGFTFSNAWMHWVRQAPGKGLEWVAQIKDKSNNYATYYAESVKGRFTISRDDSKNSIYLQMNSLKTEDTAVYYCRYVHYAAYYGVDAWGQGTTVTVSS
VL: B6 VL
B8: H0868L0581 (antibody, V domains shown)
VH: QVQLVESGGGLVQPGRSLRLSCAASGFKFSNVWMHWVRQAPGKGLEWVAQIKDKYNAYAAYYAPSVKGRFTISRDDSKNSIYLQMNSLKTEDTAVYYCHYVHYASASTLLPAFGVDAWGQGTTVTVSS
VL: B6 VL with R24Q, S25P, S28E, L29V, S32M, S61P, G94A, Q98S, V99H, Y101F
B9: H1579L0581 (antibody, V domains shown)
VH: B8 VH with N31H, M34F
VL: B6 VL with R24Q, S25P, S28E, L29V, S32M, S61P, G94A, Q98S, V99H, Y101F
B10: H1573L0581 (antibody, V domains shown)
VH: B8 VH with M34F, K54Y
VL: B6 VL with R24Q, S25P, S28E, L29V, S32M, S61P, G94A, Q98S, V99H, Y101F
B11: H0888L0581 (antibody, V domains shown)
VH: B8 VH with Y55W, V101I, V115I
VL: B6 VL with R24Q, S25P, S28E, L29V, S32M, S61P, G94A, Q98S, V99H, Y101F
notes: Dual-Ig, captured by anti-human Fc; also called dBBDu183H0888/dBBDu072L0581
B12: H1595L0581 (antibody, V domains shown)
VH: B8 VH with V32T, V101I
VL: B6 VL with R24Q, S25P, S28E, L29V, S32M, S61P, G94A, Q98S, V99H, Y101F
B13: H1571L0581 (antibody, V domains shown)
VH: B8 VH with M34F, A60T
VL: B6 VL with R24Q, S25P, S28E, L29V, S32M, S61P, G94A, Q98S, V99H, Y101F
B14: H1643L0581 (antibody, V domains shown)
VH: B8 VH with M34F, K54Y, F113E
VL: B6 VL with R24Q, S25P, S28E, L29V, S32M, S61P, G94A, Q98S, V99H, Y101F
notes: also called H1643L581; Dual
B15: H1673L0943 (antibody, V domains shown)
VH: B8 VH with K28V, M34F, Y55W, A60D, G68E, V101I, F113E, V115I
VL: DIVMTQSPLSLPVTPGEPASISCQPSEEVVHMNRNTYLHWYQQKPGQAPRLLIYKVSNLFPGVPDRFSGSGSGTDFTLKISRVEAEDVGVYYCAQGTHHPFTFGQGTKLEIK
B16: H0883 (antibody, V domains shown)
VH: B8 VH with K28T, V32A, Y55G, H99R
VL: B15 VL with P25A, E27Q, V29L, L59R, H98S, H99V
notes: also called H0883 (CD3); H883
B17: H1572L0581 (antibody, V domains shown)
VH: B8 VH with M34F, F113E
VL: B15 VL with E27Q, L59R, H98S
B18: H1647L0581 (antibody, V domains shown)
VH: B8 VH with V32T, M34F, K54Y, A57D, F113E
VL: B15 VL with E27Q, L59R, H98S
notes: also called H1647L0581 (CD137); Anti-CD137 variant

Molecular target: human CD137 (4-1BB) on cells (human, UniProt Q07011 24-255)
Test: cell-based or functional assay

human CD137 (4-1BB) on cells, sequence (Q07011 24-255): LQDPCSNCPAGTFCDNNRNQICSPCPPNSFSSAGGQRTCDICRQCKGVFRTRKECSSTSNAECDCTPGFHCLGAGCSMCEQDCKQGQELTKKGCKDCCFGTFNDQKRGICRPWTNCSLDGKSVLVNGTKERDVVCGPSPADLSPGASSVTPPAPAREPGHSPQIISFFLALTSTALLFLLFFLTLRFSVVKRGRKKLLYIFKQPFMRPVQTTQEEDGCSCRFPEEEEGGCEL

Binder	Agonistic activity compared to B, 6 ug/mL [%]	Agonistic activity compared to B, 30 ug/mL [%]	Agonistic activity compared to Ctrl, 6 ug/mL [%]	Agonistic activity compared to Ctrl, 30 ug/mL [%]	hIL-6 (pg/mL), 6 ug/mL antibody [pg/mL]	hIL-6 (pg/mL), 30 ug/mL antibody [pg/mL]
B1	19	24.2	66.1	91.7	1680	1740
B2	8.28	19.2	28.7	72.9	1300	1570
B3	6.92	20.4	24	77.3	1260	1610
B4	13.9	24.6	48.3	93.5	1500	1750
B5	13.2	19.4	45.8	73.6	1480	1570

Molecular target: T1, cyno CD137-Fc
Test: bead ELISA

Binder	binding result
B6	no binding

Molecular target: T3, biotinylated CD3 epsilon epitope peptide
T3 construct: immobilised on CM5 chip via streptavidin
Test: SPR Biacore, method of Ref. Ex. 12.6

Binder	Kd
B7	20 nM and 27 nM

Molecular target: T2, Human CD3eg linker
Test: SPR Biacore T200, 25 C, Ab captured
Method: (§1) Anti-human Fc (GE Healthcare) was immobilized onto all flow cells of a CM4 sensor chip using amine coupling kit (GE Healthcare). […] All antibodies and analytes were prepared in ACES pH 7.4 containing 20 mM ACES, 150 mM NaCl, 0.05% Tween 20, 0.005% NaN3. Sensor surface was regenerated each cycle with 3M MgCl2.

Binder	Kd [nM]
B8	173
B9	273
B10	156
B11	20.2
B12	57
B13	123
B14	288
B15	24.6
B16	110
B17	286

Molecular target: T4, Human CD137 ECD (human)
T4 construct: C-terminal His-tag and biotin acceptor peptide are in the entry; also called human CD137 extracellular domain; recombinant human CD137
Test: SPR Biacore T200, 37 C, Ab captured
Method: as §1

T4 sequence (chain, as listed by the source limits assumed): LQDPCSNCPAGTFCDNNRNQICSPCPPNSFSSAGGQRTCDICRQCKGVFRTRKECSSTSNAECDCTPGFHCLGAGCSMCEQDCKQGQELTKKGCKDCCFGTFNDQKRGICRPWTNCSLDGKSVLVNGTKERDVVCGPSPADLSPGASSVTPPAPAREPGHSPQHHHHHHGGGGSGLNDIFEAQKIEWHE

Binder	Kd [nM]
B8	108
B9	275
B18	60.5
B10	70.6
B11	208
B12	195
B13	85
B14	47.9
B15	56.5
B17	52.1
